These results are taken from patent US20240166747A1.

By EC50 is commonly meant the concentration at which the effect is half-maximal. The low end stands for higher potency in that assay, the high end for lower potency in that assay. A word on the IC50: it is the concentration that inhibits the measured activity by half. Read a low IC50 as greater potency in that assay.

B1: 42Y073-86F08-22 (antibody, V domains shown)
VH: QVQLVQSGAEVKKPGASVKVSCKASGYTFDSYAMHWVRQAPGQGLEWMGGIIPIFGTAWYAQKFQGRVTITADESTSTAYMELSSLRSEDTAVYYCARGAGYYGDKDPMDVWGQGTTVTVSS
VL: DIQLTQSPSSLSASVGDRVTITCRASQSISSYLNWYQQKPGKAPKLLIYAASSLQSGVPSRFSGSGSGTDFTLTISSLQPEDFATYYCQQVLHTITFGGGTKVEIK
B2: 42Y073-86F08-3 (antibody, V domains shown)
VH: B1 VH with A16S, Y27G, D30V, S31N, M34I, H35S, I54A, F55L, W59N
VL: B1 VL
B3: 42Y073-86F08-4 (antibody, V domains shown)
VH: B1 VH with A16S, Y27G, D30S, S31E, M34I, G50N, W59G
VL: B1 VL
B4: 42Y073-86F08-8 (antibody, V domains shown)
VH: B1 VH with A16S, Y27G, D30W, S31L, M34I, H35S, I54Q, F55L, W59N
VL: B1 VL
B5: 42Y073-86F08-16 (antibody, V domains shown)
VH: B1 VH with A16S, Y27G, D30N, S31E, M34I, H35S, I52V, I54V, W59K
VL: B1 VL
B6: 42Y073-86F08-17 (antibody, V domains shown)
VH: B1 VH with A16S, Y27G, D30R, S31E, M34I, H35S, I54V, W59N
VL: B1 VL
B7: 42Y073-86F08-47 (antibody, V domains shown)
VH: B1 VH with A16S, Y27G, D30S, S31Q, M34I, G50V, T57K, W59N
VL: B1 VL
B8: 42Y073-1A01-85 (antibody, V domains shown)
VH: QVQLVQSGAEVKKPGASVKVSCKASGYTFTSYPMHWVRQAPGQGLEWMGIINPSGGFTSYAQKFQGRVTMTRDTSTSTVYMELSSLRSEDTAVYYCARETAYYTTKGNWFDPWGQGTLVTVSA
VL: DIQMTQSPSSLSASVGDRVTITCRASQSISSYLNWYQQKPGKAPKLLIYAASSLQSGVPSRFSGSGSGTDFTLTISSLQPEDFATYYCQQSLYPPRTFGGGTKVEIK
B9: 42Y073-1A01-126 (antibody, V domains shown)
VH: B8 VH with S31R, P33N, I50W, S54A, F57S
VL: B8 VL
B10: 42Y073-86F04-4 (antibody, V domains shown)
VH: QVQLVQSGAEVKKPGSSVKVSCKASGGTFESEAISWVRQAPGQGLEWMGGIIPIFGRARYAQKFQGRVTITADESTSTAYMELSSLRSEDTAVYYCARLLGESGMDVWGQGTTVTVSS
VL: B8 VL with S91P, L92Y, Y93F, P94S, R96P
B11: 42Y073-1A01-191 (antibody, V domains shown)
VH: B8 VH with S31K, P33R, S54Q, F57S
VL: B8 VL
B12: 42Y073-86F04-6 (antibody, V domains shown)
VH: B10 VH with E30S, S31G, E32H
VL: B8 VL with S91P, L92Y, Y93F, P94S, R96P
B13: 42Y073-86F04-18 (antibody, V domains shown)
VH: B10 VH with E30S, E32R, F55M, R57T
VL: B8 VL with S91P, L92Y, Y93F, P94S, R96P
B14: 42Y073-1A01-100 (antibody, V domains shown)
VH: B8 VH with S31T, P33R, F57L, S59Q, A123S
VL: B8 VL
B15: 42Y073-1A01-103 (antibody, V domains shown)
VH: B8 VH with S31A, P33Q, S54A, F57W, A123S
VL: B8 VL
B16: 42Y073-1A01-97 (antibody, V domains shown)
VH: B8 VH with S31R, Y32A, P33A, S54A, F57Y, A123S
VL: B8 VL
B17: 42Y073-86F04-3 (antibody, V domains shown)
VH: B10 VH with E30S, S31Y, E32N, F55M, R57T
VL: B8 VL with S91P, L92Y, Y93F, P94S, R96P
B18: 42Y073-86F04-23 (antibody, V domains shown)
VH: B10 VH with E30S, S31G, E32Y, A33P, F55M, R57T
VL: B8 VL with S91P, L92Y, Y93F, P94S, R96P
B19: 42Y073-86F04-5 (antibody, V domains shown)
VH: B10 VH with E30S, E32H, A58G, R59K
VL: B8 VL with S91P, L92Y, Y93F, P94S, R96P

Changes are numbered by the printed parent chain.

The target in the first assay is native human CD96 on primary human T cells and NK cells (human) (UniProt P40200). Kind of assay: flow cytometry, primary human CD3+ T cells. On the technique in general: A flow cytometer gives signals particle by particle.
B1 yielded an EC50 of 0.1 nM.

The next assay has as its target human CD96v2 expressed on cells (human) (UniProt P40200). Put plainly: flow cytometry, CHO cells expressing human CD96v2.
For B2, the EC50 was determined as 0.04 nM.

Molecule B3 registered an EC50 of 0.04 nM.

Molecule B1 displayed an EC50 of 0.03 nM.

For the molecule B4, the EC50 amounted to 0.17 nM.

Take B5: the concentration giving a half-maximal response (EC50) is 0.03 nM.

Turning to B6, the EC50 is 0.1 nM.

As for B7, the EC50 was 0.05 nM.

B8 yielded an EC50 of 0.47 nM.

Turning to B9, the EC50 was found to be 0.02 nM.

Molecule B10 returned an EC50 of 0.04 nM.

In turn, B11 registered an EC50 of 0.01 nM.

B12 displayed an EC50 of 0.06 nM.

Regarding B13, the EC50 turned out to be 0.07 nM.

In turn, B14 gave an EC50 of 0.02 nM.

B15 registered an EC50 of 0.02 nM.

In the case of B16, the EC50 was 0.77 nM.

The molecule B17 came in with an EC50 of 0.04 nM.

B18 gave an EC50 of 0.06 nM.

The target is the same in the next assay. Put plainly: competition flow cytometry, inhibition of CD155-Fc-AF647 binding to CHO cells expressing human CD96v2.
As to B2, the IC50 was found to be 0.26 nM.

In the case of B3, the IC50 came to 0.38 nM.

On to B1, for which the IC50 was determined as 0.41 nM.

Turning to B4, the IC50 was determined as 0.93 nM.

Regarding B5, the IC50 was determined as 0.78 nM.

B6 yielded an IC50 of 0.52 nM.

Molecule B7 showed an IC50 of 0.17 nM.

Molecule B8 displayed a 50% inhibitory concentration (IC50) of 0.03 nM.

As to B9, the IC50 was 0.1 nM.

The molecule B10 yielded an IC50 of 0.18 nM.

In turn, B19 registered an IC50 of 0.38 nM.

As to B11, the IC50 is 0.03 nM.

Molecule B12 came in with an IC50 of 0.25 nM.

B13 showed an IC50 of 0.59 nM.

Regarding B14, the IC50 worked out at 0.06 nM.

The molecule B15 displayed an IC50 of 0.03 nM.

Regarding B16, the IC50 was determined as 0.03 nM.

Take B17: the IC50 stood at 0.31 nM.

B18 yielded an IC50 of 0.76 nM.
